Measured values reported in patent US20200247855A1, “THERAPY AND DIAGNOSTICS” (OXFORD UNIVERSITY INNOVATION LIMITED, priority 2017, published 2020).
Positions count from the first letter of the chain named. Entries after “also recorded” stand apart in the source; their conditions may differ. Like-named read-outs stand apart in the source and are kept apart here.

Legend:
CCL13_HUMAN = CCL13_HUMAN (Homo sapiens, UniProt Q99616); assay: Biolayer interferometry (BLI) binding
Method in brief: (§1)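 Analyte: chemokine, screened at 300 nM then as a dose series for binders. Ligand: purified His-tagged tick evasin on Ni-NTA sensors. Kd obtained by fitting association, equilibrium and dissociation traces.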

CCL8_HUMAN = biological target: T1, CCL8_HUMAN (Homo sapiens, UniProt P80075); assay: Biolayer interferometry (BLI) binding
T1 sequence (P80075 24-99): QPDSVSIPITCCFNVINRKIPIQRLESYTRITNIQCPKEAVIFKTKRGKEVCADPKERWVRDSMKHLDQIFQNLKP
Method in brief: as §1

CCL19_HUMAN [1] = biological target: T2, CCL19_HUMAN (Homo sapiens, UniProt Q99731); assay: Biolayer interferometry (BLI) binding
T2 sequence (Q99731 22-98): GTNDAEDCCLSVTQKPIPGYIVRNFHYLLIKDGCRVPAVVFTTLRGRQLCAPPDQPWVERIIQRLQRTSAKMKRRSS
Method in brief: as §1

CCL18_HUMAN [2] = biological target: T3, CCL18_HUMAN (Homo sapiens, UniProt P55774); assay: Biolayer interferometry (BLI) binding
T3 sequence (P55774 21-89): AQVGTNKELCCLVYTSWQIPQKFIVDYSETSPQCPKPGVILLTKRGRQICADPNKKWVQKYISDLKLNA
Method in brief: as §1

CCL3L1_HUMAN [3] = biological target: T4, CCL3L1_HUMAN (Homo sapiens, UniProt P16619); assay: Biolayer interferometry (BLI) binding
T4 sequence (P16619 24-93): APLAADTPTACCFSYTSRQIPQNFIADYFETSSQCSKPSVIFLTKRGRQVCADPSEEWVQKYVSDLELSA
Method in brief: as §1

CCL15_HUMAN = biological target: T5, CCL15_HUMAN (Homo sapiens, UniProt Q16663); assay: Biolayer interferometry (BLI) binding
T5 sequence (Q16663 22-113): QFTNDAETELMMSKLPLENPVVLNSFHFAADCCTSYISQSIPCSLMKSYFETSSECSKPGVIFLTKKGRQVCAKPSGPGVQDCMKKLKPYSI
Method in brief: as §1

CCL23_HUMAN = biological target: T6, CCL23_HUMAN (Homo sapiens, UniProt P55773); assay: Biolayer interferometry (BLI) binding
T6 sequence (P55773 22-120): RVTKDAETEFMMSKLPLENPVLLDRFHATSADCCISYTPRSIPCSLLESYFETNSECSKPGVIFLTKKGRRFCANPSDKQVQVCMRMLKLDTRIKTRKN
Method in brief: as §1

CCL11_HUMAN [4] = biological target: T7, CCL11_HUMAN (Homo sapiens, UniProt P51671); assay: Biolayer interferometry (BLI) binding
T7 sequence (P51671 24-97): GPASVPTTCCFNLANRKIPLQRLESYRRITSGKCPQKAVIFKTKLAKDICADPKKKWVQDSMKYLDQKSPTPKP
Method in brief: as §1

CCL24_HUMAN = biological target: T8, CCL24_HUMAN (Homo sapiens, UniProt O00175); assay: Biolayer interferometry (BLI) binding
T8 sequence (O00175 27-119): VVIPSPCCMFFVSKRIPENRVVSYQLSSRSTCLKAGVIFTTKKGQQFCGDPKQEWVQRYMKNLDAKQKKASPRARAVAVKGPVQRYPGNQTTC
Method in brief: as §1

CCL5_HUMAN [5] = biological target: T9, CCL5_HUMAN (Homo sapiens, UniProt P13501); assay: Biolayer interferometry (BLI) binding
T9 sequence (P13501 24-91): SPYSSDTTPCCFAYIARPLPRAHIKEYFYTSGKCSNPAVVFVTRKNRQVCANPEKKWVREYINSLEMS
Method in brief: as §1

CCL7_HUMAN = CCL7_HUMAN (Homo sapiens, UniProt P80098); assay: Biolayer interferometry (BLI) binding
Chain of CCL7_HUMAN (P80098 24-99): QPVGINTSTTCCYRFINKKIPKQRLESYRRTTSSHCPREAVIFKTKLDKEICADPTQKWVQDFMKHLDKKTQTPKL
Method in brief: as §1

CCL22_HUMAN = biological target: T10, CCL22_HUMAN (Homo sapiens, UniProt O00626); assay: Biolayer interferometry (BLI) binding
T10 sequence (O00626 25-93): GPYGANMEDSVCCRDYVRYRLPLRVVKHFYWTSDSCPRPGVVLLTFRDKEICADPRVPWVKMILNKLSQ
Method in brief: as §1

CCL4L1_HUMAN = biological target: T11, CCL4L1_HUMAN (Homo sapiens, UniProt Q8NHW4); assay: Biolayer interferometry (BLI) binding
T11 sequence (Q8NHW4 24-92): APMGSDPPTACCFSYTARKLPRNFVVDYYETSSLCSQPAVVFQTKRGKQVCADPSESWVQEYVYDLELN
Method in brief: as §1

CCL14_HUMAN = biological target: T12, CCL14_HUMAN (Homo sapiens, UniProt Q16627); assay: Biolayer interferometry (BLI) binding
T12 sequence (Q16627 20-93): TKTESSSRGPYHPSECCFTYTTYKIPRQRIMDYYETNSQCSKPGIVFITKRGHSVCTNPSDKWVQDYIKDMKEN
Method in brief: as §1

CCL27_HUMAN = biological target: T13, CCL27_HUMAN (Homo sapiens, UniProt Q9Y4X3); assay: Biolayer interferometry (BLI) binding
T13 sequence (Q9Y4X3 25-112): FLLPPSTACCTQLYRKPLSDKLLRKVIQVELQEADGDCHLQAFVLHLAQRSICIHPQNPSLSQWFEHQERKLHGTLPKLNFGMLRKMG
Method in brief: as §1

CCL4_HUMAN [6] = biological target: T14, CCL4_HUMAN (Homo sapiens, UniProt P13236); assay: Biolayer interferometry (BLI) binding
T14 sequence (P13236 24-92): T11 sequence (Q8NHW4 24-92) with G47S
Method in brief: as §1

CCL18_HUMAN [7] = biological target: T3, CCL18_HUMAN; assay: Yeast surface display (YSD) FACS binding
Method in brief: (§2)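 Yeast clones displaying tick peptides were re-tested by FACS with labelled chemokine. Binding = % of peptide-expressing yeast above a background threshold set with streptavidin-Alexa647 alone; the mean percent shift was used where several clones were isolated. Confirmed binding ("YES") required >3-fold over background mean fluorescence intensity.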

CCL1_HUMAN = biological target: T15, CCL1_HUMAN (Homo sapiens, UniProt P22362); assay: Yeast surface display (YSD) FACS binding
T15 sequence (P22362 24-96): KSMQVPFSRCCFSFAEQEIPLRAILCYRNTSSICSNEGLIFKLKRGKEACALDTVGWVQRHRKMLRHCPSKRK
Method in brief: as §2

CXCL12_HUMAN = CXCL12_HUMAN (Homo sapiens, UniProt P48061); assay: Yeast surface display (YSD) FACS binding; details: yeast surface display
Chain of CXCL12_HUMAN (P48061 22-93): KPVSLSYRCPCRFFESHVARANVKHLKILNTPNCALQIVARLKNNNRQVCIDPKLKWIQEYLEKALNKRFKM
Method in brief: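 Yeast clones displaying tick peptides were re-tested by FACS with labelled chemokine detected by streptavidin-Alexa conjugate. Binding was scored as % of peptide-expressing cells above a background set with streptavidin-Alexa alone, averaged over independent clones. In the screen tables, >3-fold over background mean fluorescence intensity was scored as binding.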

CCL11_HUMAN [8] = biological target: T7, CCL11_HUMAN; assay: Yeast surface display (YSD) FACS binding
Method in brief: as §2

CCL5_HUMAN [9] = biological target: T9, CCL5_HUMAN; assay: Yeast surface display (YSD) FACS binding
Method in brief: as §2

CCL18_HUMAN [10] = biological target: T3, CCL18_HUMAN; details: read-out: Kd, CCL18_HUMAN, previously described evasins; data obtained from publications [20-22,32]; cited from earlier work
CCL3_HUMAN [11] = biological target: T16, CCL3_HUMAN (Homo sapiens, UniProt P10147); details: read-out: Kd, CCL3_HUMAN, previously described evasins; data obtained from publications [20-22,32]; cited from earlier work
T16 sequence (P10147 24-92): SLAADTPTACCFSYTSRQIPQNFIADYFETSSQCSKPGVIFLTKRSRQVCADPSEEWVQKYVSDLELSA

CCL4_HUMAN [12] = biological target: T14, CCL4_HUMAN; details: read-out: Kd, CCL4_HUMAN, previously described evasins; data obtained from publications [20-22,32]; cited from earlier work
chemokines = details: list of chemokines bound, from the literature [18,20-22]; listed as EVA1_RHISA; cited from earlier work
CCL3L1_HUMAN [13] = biological target: T4, CCL3L1_HUMAN; details: read-out: Kd, CCL3L1_HUMAN, previously described evasins; data obtained from publications [20-22,32]; cited from earlier work
CCL19_HUMAN [14] = biological target: T2, CCL19_HUMAN; assay: Yeast surface display (YSD) FACS binding
Method in brief: as §2

CCL17_HUMAN = biological target: T17, CCL17_HUMAN (Homo sapiens, UniProt Q92583); assay: Yeast surface display (YSD) FACS binding
T17 sequence (Q92583 24-94): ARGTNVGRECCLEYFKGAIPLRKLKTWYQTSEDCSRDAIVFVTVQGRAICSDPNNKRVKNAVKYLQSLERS
Method in brief: as §2

CCL3_HUMAN [15] = biological target: T16, CCL3_HUMAN; assay: Yeast surface display (YSD) FACS binding
Method in brief: as §2

Chain of CCL13_HUMAN (Q99616 17-98): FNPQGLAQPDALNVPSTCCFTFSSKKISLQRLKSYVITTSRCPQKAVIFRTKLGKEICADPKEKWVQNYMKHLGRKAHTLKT

B1: P991_AMBCA: tick CKBP, Amblyomma cajennense (protein)
chain: ENGEGTTQPDYDNSTDYYNYEDFKCTCPAPHLNNTNGTVMKPIGCYYTCNVTRCTAPDTYPCYNLTEHQAKNLTTSPTTLCAVGNCDHGICVPNGTKELCFKAPNLEE
modifications: Amblyomma cajennense
- Kd (CCL13_HUMAN): 0.419 nM
- Kd (CCL8_HUMAN; read-out: Kd, CCL8_HUMAN): 8.79 nM
- Kd (CCL19_HUMAN [1]): 14.4 nM
- Kd (CCL18_HUMAN [2]): 0.209 nM
- Kd (CCL3L1_HUMAN [3]): 1.4 nM
- Kd (CCL15_HUMAN): 159 nM
- Kd (CCL23_HUMAN): 5.58 nM
- Kd (CCL11_HUMAN [4]): 3.43 nM
- Kd (CCL24_HUMAN): 6.54 nM
- Kd (CCL5_HUMAN [5]): 1.47 nM
- Kd (CCL7_HUMAN): 0.514 nM
- Kd (CCL22_HUMAN): 3.97 nM
- Kd (CCL4L1_HUMAN): 0.827 nM
- Kd (CCL14_HUMAN): 0.43 nM
- Kd (CCL27_HUMAN): 38.9 nM
- Kd (CCL4_HUMAN [6]): 5.82 nM

B2: P1029_AMBPA: tick CKBP, Amblyomma parvum; named P1209_AMBPA in Table 1 (protein, listed as Amblyomma parvum)
chain: KTDTKNAAGELPPKVAIPGCEDPATTKAPLPDDPRYYGVTIDKDGCQRKVLGSSQRQQRQVQNGRKPGRKGRGRRPVFVDLKLTVDCKRKCNGTYSQLPDGEPCLVCDGEPYGRHRTIKGGCYQGNCSSGQCHRGERKVNCYIPKNITNNVLNSVNLAE
- Binding to CCL18_HUMAN, YSD (CCL18_HUMAN [7]): YES (An arbitrary threshold of >3 fold over background mean fluorescence intensity was chosen to describe confirmed re-tests. Where binding was detected data are indicated as “YES”)
- Binding to CCL1_HUMAN, YSD (CCL1_HUMAN): YES (An arbitrary threshold of >3 fold over background mean fluorescence intensity was chosen to describe confirmed re-tests. Where binding was detected data are indicated as “YES”)
- Binding to CXCL12_HUMAN, YSD (CXCL12_HUMAN): YES (An arbitrary threshold of >3 fold over background mean fluorescence intensity was chosen to describe confirmed re-tests. Where binding was detected data are indicated as “YES”)
- Binding to CCL11_HUMAN, YSD (CCL11_HUMAN [8]): YES (An arbitrary threshold of >3 fold over background mean fluorescence intensity was chosen to describe confirmed re-tests. Where binding was detected data are indicated as “YES”)
- Binding to CCL5_HUMAN, YSD (CCL5_HUMAN [9]): YES (An arbitrary threshold of >3 fold over background mean fluorescence intensity was chosen to describe confirmed re-tests. Where binding was detected data are indicated as “YES”)

B3: EVASIN1: previously described tick CKBP evasin 1, from Rhipicephalus sanguineus (protein, listed as Rhipicephalus sanguineus)
chain: EDDEDYGDLGGCPFLVAENKTGYPTIVACKQDCNGTTETAPNGTRCFSIGDEGLRRMTANLPYDCPLGQCSNGDCIPKETYEVCYRRNWRDKKN
- Kd (CCL18_HUMAN [10]): 3 nM
- Kd (CCL3_HUMAN [11]): 0.1 nM
- Kd (CCL4_HUMAN [12]): 0.5 nM
- Previously described chemokine binding (chemokines): CCL3, CCL3L1, CCL4, CCL4L1, CCL14 and CCL18 but not CCL8; also recorded: CCL3, CCL3L1,; also recorded: CCL4, CCL18
- Kd (CCL3L1_HUMAN [13]): 0.05 nM
- CCL8 binding (bound or not) (CCL8_HUMAN; 300 nM or 600 nM CCL8): did not

B4: P1005_AMBMA: tick CKBP, Amblyomma maculatum (protein, listed as Amblyomma maculatum)
chain: EKDTPKNIPGCGDTGTTAAPPADNPKHFAVYTDKHGCTIKVIGTWMTKEDHSRLPVSLRRVRASSGRVMLPASCQKICNDTVKNFPEGTPCRLVTGDPIKGKNHIKDGCIRGYCSSGVCVSDKRNISCYVPPN
- Binding to CCL19_HUMAN, YSD (CCL19_HUMAN [14]): YES (An arbitrary threshold of >3 fold over background mean fluorescence intensity was chosen to describe confirmed re-tests. Where binding was detected data are indicated as “YES”)
- Binding to CCL1_HUMAN, YSD (CCL1_HUMAN): YES (An arbitrary threshold of >3 fold over background mean fluorescence intensity was chosen to describe confirmed re-tests. Where binding was detected data are indicated as “YES”)
- Binding to CCL11_HUMAN, YSD (CCL11_HUMAN [8]): YES (An arbitrary threshold of >3 fold over background mean fluorescence intensity was chosen to describe confirmed re-tests. Where binding was detected data are indicated as “YES”)
- Binding to CCL17_HUMAN, YSD (CCL17_HUMAN): YES (An arbitrary threshold of >3 fold over background mean fluorescence intensity was chosen to describe confirmed re-tests. Where binding was detected data are indicated as “YES”)
- Binding to CCL5_HUMAN, YSD (CCL5_HUMAN [9]): YES (An arbitrary threshold of >3 fold over background mean fluorescence intensity was chosen to describe confirmed re-tests. Where binding was detected data are indicated as “YES”)
- Binding to CCL3_HUMAN, YSD (CCL3_HUMAN [15]): YES (An arbitrary threshold of >3 fold over background mean fluorescence intensity was chosen to describe confirmed re-tests. Where binding was detected data are indicated as “YES”)
